Data as given in US20130224224A1 (Boehringer Ingelheim, published 2013).
Changes are numbered by the printed parent chain. Read-outs that look alike come from different tables or passages of the source.

T1: human CX3CR1 (human, UniProt P49238 1-355)
T1 construct: overexpressed on CHO, BA/F3 or HEK293T cells; also called huCX3CR1; hCX3CR1
T1 sequence: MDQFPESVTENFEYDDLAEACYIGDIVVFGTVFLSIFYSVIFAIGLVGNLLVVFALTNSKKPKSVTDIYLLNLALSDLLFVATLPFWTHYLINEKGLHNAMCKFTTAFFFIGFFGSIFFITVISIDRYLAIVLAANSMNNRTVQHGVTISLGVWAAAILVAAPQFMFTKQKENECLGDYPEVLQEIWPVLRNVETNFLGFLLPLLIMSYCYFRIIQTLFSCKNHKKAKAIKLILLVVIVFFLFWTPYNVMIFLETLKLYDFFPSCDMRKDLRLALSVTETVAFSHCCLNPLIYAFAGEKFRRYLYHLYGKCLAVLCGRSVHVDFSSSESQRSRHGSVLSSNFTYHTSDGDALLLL

T2: cynomolgus CX3CR1 (cynomolgus, UniProt P49238 1-355 (human entry))
T2 construct: transiently expressed on HEK293T cells; also called cyCX3CR1; cyno CX3CR1
T2 chain: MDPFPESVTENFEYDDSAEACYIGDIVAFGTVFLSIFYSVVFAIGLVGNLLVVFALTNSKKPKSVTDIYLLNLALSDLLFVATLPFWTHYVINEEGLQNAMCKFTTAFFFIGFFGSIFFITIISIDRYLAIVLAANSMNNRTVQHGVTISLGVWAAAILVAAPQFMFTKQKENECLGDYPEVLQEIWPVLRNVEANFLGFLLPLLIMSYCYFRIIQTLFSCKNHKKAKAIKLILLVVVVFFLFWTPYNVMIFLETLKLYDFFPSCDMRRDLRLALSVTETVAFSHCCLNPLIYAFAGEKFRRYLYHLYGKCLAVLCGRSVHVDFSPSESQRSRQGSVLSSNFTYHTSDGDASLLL

B1: CX3CR1BII016 (VHH)
chain: EVQLVESGGGSVQAGESLRLSCAASGSIFSSNAMAWYRQAPGKQRDLVAVINSVGITKYADSVKGRFTISGDNAKNTVYLQMNSLKPEDTAVYYCTSDARRGWDTRYWGQGTQVTVSSGGGGSGGGGSGGGGSGGGGSGGGGSGGGGSGGGGSEVQLVESGGGSVQAGESLRLSCAASGSIFSSNAMAWYRQAPGKQRDLVAVINSVGITKYADSVKGRFTISGDNAKNTVYLQMNSLKPEDTAVYYCTSDARRGWDTRYWGQGTQVTVSS
notes: expressed in E. coli as described for the monovalent VHHs
B2: CX3CR1BII019 (VHH)
chain: B1 chain with V2M, V50L, G71R, A99G, V155M, V203L, G224R, A252G
notes: as for B1
B3: CX3CR1BII020 (VHH)
chain: B1 chain with V50G, G71R, V78A, A99P, Q113L, V203G, G224R, V231A, A252P, Q266L
notes: as for B1
B4: CX3CR1BII018 (VHH)
chain: B1 chain with Q44R, V50A, I56V, G71R, A99P, Q197R, V203A, I209V, G224R, A252P
modifications: A647 label where used as labeled competitor (Example 14)
notes: expressed in E. coli as described for the monovalent VHHs; also called A647-018; A647 labeled CX3CR1BII018
B5: CX3CR1BIIPMP54D5 (VHH)
VHH: EVQLVESGGGSVQAGESLRLSCAASGSIFSSNAMAWYRQAPPGKQRDLVALINSVGITKYADSVKGRFTISSDNAKNTVYLEMNSLKPEDTAVYYCTSDGRRGWDTRYWGQGTQVTVSS
notes: also called 54D05; CX3CR1BII54D5; not shown: C-terminal c-myc and His6 tags
B6: CX3CR1BIIPMP11H11 (VHH)
VHH: EVQLVESGGGLVQAGGSLRLSCVASGRTFSSYAMGWFRQAPGKERAFVAGISGSASRKYYADSVKGRFTVSRDNARNTVYLQMNSLKPEDTAVYYCAASNSYPKVQFDYYGQGTQVTVSS
notes: family 9; also called CX3CR1BII11H11; not shown: C-terminal c-myc and His6 tags
B7: CX3CR1BII017 (VHH)
chain: EVQLVESGGGSVQAGESLRLSCAASGSIFSSNAMAWYRQAPPGKQRDLVALINSVGITKYADSVKGRFTISSDNAKNTVYLEMNSLKPEDTAVYYCTSDGRRGWDTRYWGQGTQVTVSSGGGGSGGGGSGGGGSGGGGSGGGGSGGGGSGGGGSEVQLVESGGGSVQAGESLRLSCAASGSIFSSNAMAWYRQAPPGKQRDLVALINSVGITKYADSVKGRFTISSDNAKNTVYLEMNSLKPEDTAVYYCTSDGRRGWDTRYWGQGTQVTVSS
notes: as for B1

Key:
human CX3CR1 [1] = biological target: T1, human CX3CR1; experiment: A647-fractalkine competition FACS, HEK293-huCX3CR1
human CX3CR1 [2] = biological target: T1, human CX3CR1; experiment: cell-based or functional assay
cynomolgus CX3CR1 [3] = biological target: T2, cynomolgus CX3CR1; experiment: A647-fractalkine competition FACS, cynomolgus against human CX3CR1
Method: (§1) For later identified VHHs, a human Fractalkine competition FACS was set up using human or cynomolgus CX3CR1 expressed in HEK293T cells. Both the human and the cynomolgus receptor was transiently transfected in HEK293T cells and transfections were matched by the binding of the labeled ligand, human fractalkine. The competition was evaluated using the EC30 concentration of fractalkine and as such obtained IC50 values are a good estimate of the Ki value, a measure for affinity (Table 22). The experiment was performed as described in Example 4. The ratio of the IC50 values on cynomolgus monkey and human CX3CR1 was used to evaluate potential differences in affinity for CX3CR1 in both species.
(§2) Also for the bivalent constructs the cross reactivity towards cynomolgus CX3CR1 was evaluated and compared with the human reactivity. As described earlier, either a binding setup (Table 27) or a ligand competition setup (Table 28) were applied using transient transfected HEK293T cells. Batches of transient transfected cells were matched by their receptor expression level.

cynomolgus CX3CR1 [4] = biological target: T2, cynomolgus CX3CR1; experiment: A647-fractalkine competition FACS, HEK293T cynomolgus CX3CR1
Method: as §1, §2

human CX3CR1 [5] = biological target: T1, human CX3CR1; experiment: A647-fractalkine competition FACS, HEK293T human CX3CR1
Method: as §1, §2

human CX3CR1 [6] = biological target: T1, human CX3CR1; experiment: cell-based or functional assay; remark: listed apart in the source
human CX3CR1 [7] = biological target: T1, human CX3CR1; experiment: A647-fractalkine competition FACS, CHO-huCX3CR1
Description: (§3) Periplasmic extracts were screened in a human CX3CR1/human Fractalkine FACS competition assay to assess the blocking capacity of the expressed VHHs. Human CX3CR1 was presented on CHO cells overexpressing CX3CR1. Both a setup using cells harvested from an actively growing culture and a setup using frozen cells was used. As a detection reagent labeled fractalkine was used (R&D Systems, Minneapolis, Minn., USA) labeled with alexa647 (A647-Fractalkine) at a degree of labeling of 1. To setup the assay, first a titration series of the labeled fractalkine was performed on the CHO-huCX3CR1 cells in order to determine the EC50 value for binding. Initially screening was performed at a higher concentration of fractalkine (3 nM) to increase the assay robustness. To increase the sensitivity of the screening to a maximum, the EC30 concentration (1 nM) was chosen for subsequent screening. In brief 50 μl of periplasmic extract was added to 6 nM labeled fractalkine (50 μ;) and 200 000 CHO-huCX3CR1 cells. After one hour incubation at 4 C, cells were washed three times before read out was performed on a FACS Array (Becton Dickinson). First a gate was set on the intact cells as determined from the scatter profile. Next, dead cells were gated out by their fluorescence profile from the PI stain (Sigma, St Louis, US). The fluorescence profile from the alexa647 label was determined for each sample and used for calculation of blocking capacity. As controls, conditions were taken along where there was no VHH present in the peri extract or a known irrelevant VHH and samples were included where excess cold fractalkine was included. For each sample the percentage block was determined using the control samples to determine the assay window.
(§4) The blocking capacity towards the ligand fractalkine of the VHHs was evaluated in a human CX3CR1 competition FACS as outlined in Example 4. Either CHO-huCX3CR1 cells, BA/F3-huCX3CR1 cells or transiently transfected HEK293T cells were used. The amount of labeled ligand used in the different competition setups was also varied. The IC₅₀ values for VHHs blocking the interaction of human fractalkine to human CX3CR1 are depicted in Table 19.

human CX3CR1 [8] = biological target: T1, human CX3CR1; experiment: A647-fractalkine competition FACS, HEK293-huCX3CR1; remark: listed apart in the source
Description: as §3, §4

human CX3CR1 [9] = biological target: T1, human CX3CR1; experiment: A647-fractalkine competition FACS, BA/F3-huCX3CR1
Description: as §3, §4

cynomolgus CX3CR1 [10] = biological target: T2, cynomolgus CX3CR1; experiment: FACS binding on cynomolgus CX3CR1 cells, anti-c-myc detection
Method: (§5) Initially, a FACS based binding setup was used to evaluate the cynomolgus cross reactivity. For this, the VHHs were incubated with the respective cells for 30 minutes at 4° C. followed by three wash steps and subsequently incubated with the detection reagents. As detection, a mouse anti-cmyc antibody (Serotec, MCA2200) followed by a goat anti-mouse antibody coupled to PE (Jackson 115-116-071) was used, each incubation for 30 minutes at 4° C., followed by three wash steps.

cynomolgus CX3CR1 [11] = biological target: T2, cynomolgus CX3CR1; experiment: A647-fractalkine competition FACS, cynomolgus against human CX3CR1
Description: as §3
as §1, with “4.” for “4. The ratio of the IC50 values on cynomolgus monkey and human CX3CR1 was used to evaluate potential differences in affinity for CX3CR1 in both species.”

human CX3CR1 [12] = biological target: T1, human CX3CR1; experiment: A647-fractalkine competition FACS, HEK293T human CX3CR1; remark: listed apart in the source
Description: as §3
as §1, with “4.” for “4. The ratio of the IC50 values on cynomolgus monkey and human CX3CR1 was used to evaluate potential differences in affinity for CX3CR1 in both species.”

human CX3CR1 [13] = biological target: T1, human CX3CR1; experiment: periplasmic extract, A647-fractalkine competition FACS, CHO-huCX3CR1
Description: as §3

cynomolgus CX3CR1 [14] = biological target: T2, cynomolgus CX3CR1; experiment: FACS binding, cynomolgus against human CX3CR1
Method: as §5

human CX3CR1 [15] = biological target: T1, human CX3CR1; experiment: FACS binding on human CX3CR1 cells, anti-c-myc detection
Method: as §5

cynomolgus CX3CR1 [16] = biological target: T2, cynomolgus CX3CR1; experiment: A647-fractalkine competition FACS, HEK293T cynomolgus CX3CR1
Description: as §3
as §1, with “4.” for “4. The ratio of the IC50 values on cynomolgus monkey and human CX3CR1 was used to evaluate potential differences in affinity for CX3CR1 in both species.”

human CX3CR1 [17] = biological target: T1, human CX3CR1; experiment: competition FACS, BA/F3-huCX3CR1; competitor alexa647-labeled 66B02
Description: A competitive binding experiment was setup in order to determine whether the VHHs bind overlapping epitopes on CX3CR1. For this, the VHH 66B02 labeled with alexa647 was used in a competition FACS on the BA/F3 cells expressing huCX3CR1. Representative VHHs from the three functional families were used as competitors for the binding of the labeled 66B02.

| Binder | % block (human CX3CR1 [1]) | IC50 (human CX3CR1 [1]) | % block, fractalkine induced chemotaxis (human CX3CR1 [2]) | IC50, fractalkine induced chemotaxis (human CX3CR1 [2]) | ratio (cynomolgus/human IC50) (cynomolgus CX3CR1 [3]) | % block (cynomolgus CX3CR1 [4]) | IC50 (cynomolgus CX3CR1 [4]) | % block (human CX3CR1 [5]) | IC50 (human CX3CR1 [5]) | further results |
| --- | --- | --- | --- | --- | --- | --- | --- | --- | --- | --- |
| B1 | 102% | 190 pM | 88% | 2000 pM | 3.67 | 98% | 690 pM | 102% | 190 pM | – |
| B2 | 100% | 290 pM | 85% | 2000 pM | 2.86 | 96% | 820 pM | 100% | 290 pM | – |
| B3 | 102% | 220 pM | 85% | 2000 pM | 1.47 | 97% | 320 pM | 102% | 220 pM | – |
| B4 | 102% | 300 pM | 98% | 600 pM | 3.33 | 97% | 100 pM | 102% | 30 pM | – |
| B5 | – | – | – | – | – | – | – | – | – | % block, fractalkine induced chemotaxis (human CX3CR1 [6]): 81%; IC50, fractalkine induced chemotaxis (human CX3CR1 [6]): 70000 pM; % block (human CX3CR1 [7]): 102%; IC50 (human CX3CR1 [7]): 2700 pM; % block (human CX3CR1 [8]): 94%; IC50 (human CX3CR1 [8]): 5300 pM; % block (human CX3CR1 [9]): 99%; IC50 (human CX3CR1 [9]): 5500 pM; EC50 (cynomolgus CX3CR1 [10]): 50000 pM; ratio (cynomolgus/human IC50) (cynomolgus CX3CR1 [11]): 12.2; % block (human CX3CR1 [12]): 94%; IC50 (human CX3CR1 [12]): 5300 pM; % block (human CX3CR1 [13]): 87.8%; ratio (cynomolgus/human EC50) (cynomolgus CX3CR1 [14]): 59.6; EC50 (human CX3CR1 [15]): 840 pM; % block (cynomolgus CX3CR1 [16]): 91%; IC50 (cynomolgus CX3CR1 [16]): 64000 pM |
| B6 | – | – | – | – | – | – | – | – | – | % block, fractalkine induced chemotaxis (human CX3CR1 [6]): 89%; IC50, fractalkine induced chemotaxis (human CX3CR1 [6]): 200000 pM; % block (human CX3CR1 [7]): 100%; IC50 (human CX3CR1 [7]): 17000 pM; % block (human CX3CR1 [9]): 100%; IC50 (human CX3CR1 [9]): 8100 pM; % block (human CX3CR1 [13]): 99%; EC50 (human CX3CR1 [15]): 800 pM; % block (human CX3CR1 [17]): 100%; IC50 (human CX3CR1 [17]): 4900 pM |
| B7 | 99% | 310 pM | 89% | 3000 pM | 5.34 | 95% | 1600 pM | 99% | 310 pM | – |
